Measurements from US20050049403A1 (CAMBRIDGE ANTIBODY TECHNOLOGY, published 2005).

Assays:
recombinant human TGFβ2 [1] = molecular target: T1, recombinant human TGFβ2 (human, UniProt P61812 303-414); assay: cell-based or functional assay
T1 sequence (looked up): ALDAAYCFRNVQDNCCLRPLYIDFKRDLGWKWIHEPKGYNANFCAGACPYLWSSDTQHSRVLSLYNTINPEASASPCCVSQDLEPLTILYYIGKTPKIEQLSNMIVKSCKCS

TGFβ3 [2] = molecular target: T2, TGFβ3 (UniProt P10600 301-412); assay: cell-based or functional assay
T2 sequence (looked up): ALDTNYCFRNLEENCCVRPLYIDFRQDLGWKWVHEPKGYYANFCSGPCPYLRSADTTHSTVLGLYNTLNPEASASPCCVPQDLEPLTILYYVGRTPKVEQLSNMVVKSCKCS

recombinant human TGFβ1 [3] = molecular target: T3, recombinant human TGFβ1 (human, UniProt P01137 279-390); assay: cell-based or functional assay
T3 sequence (P01137 279-390 limits assumed): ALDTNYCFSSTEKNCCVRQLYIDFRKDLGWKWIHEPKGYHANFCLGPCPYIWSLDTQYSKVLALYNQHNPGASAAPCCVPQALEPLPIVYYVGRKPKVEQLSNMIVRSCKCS

recombinant human TGFβ1 [4] = molecular target: T3, recombinant human TGFβ1; assay: A549 cell radioreceptor assay (nM IgG)
TGFβ3 [5] = molecular target: T2, TGFβ3; assay: A549 cell radioreceptor assay (nM IgG)
recombinant human TGFβ2 [6] = molecular target: T1, recombinant human TGFβ2; assay: A549 cell radioreceptor assay (nM IgG)
Procedure: (§1) Aliqouts of ¹²⁵I-TGFβ1 or TGFβ2 (70-90 TBq/mmol; Amersham International) at 20 pM are preincubated with antibody in binding medium at room temperature for 1 h. Duplicate samples of 0.5 ml of TGFβ/antibody mixtures are then added to the cell monlayers and are incubated at 37° C. for 1-2 h. Control wells contain TGFβ only. Unbound TGFβ is removed by washing 4 times with Hank's balanced salt solution containing 0.1% BSA. Cells are solubilised in 0.8 ml 25 mM Tris HCl pH 7.5, 10% glycerol, 1% Triton X-100 at room temperature for 20 min. The contents of each well are removed and ¹²⁵I measured in a gamma counter.
The ability of 6B1 IgG4 to inhibit binding of TGFβ isoforms to receptors was measured in a radioreceptor assay as described in example 4.

recombinant human TGFβ1 [7] = molecular target: T3, recombinant human TGFβ1; assay: specificity ELISA, TGFβ coated at 0.2 µg/ml
Procedure: Clones identified as binding TGFβ-1 rather an uncoated well, as described above, were further analysed for fine specificity. […] Microtitre plate wells were coated with 50 μl of either 0.2 μg/ml TGFβ1, 0.2 μg/ml TGFβ-2, 10 μg/ml bovine serum albumin (BSA) or PBS (the uncoated well). After preblocking both the phage (or soluble scFv) and the microtitre plates, 50 μl blocked phage (or soluble scFv) from each clone was added to a well coated with either TGFβ-1, TGFβ-2, BSA or an uncoated well. As above, alkaline phosphatse activity was visualised using either the chromagenic substrate pNPP (Sigma) or the Ampak system (Dako). […]

recombinant human TGFβ2 [8] = molecular target: T1, recombinant human TGFβ2; assay: cell-based or functional assay; remark: listed apart in the source
recombinant human TGFβ2 [9] = molecular target: T1, recombinant human TGFβ2; assay: cell-based or functional assay; remark: listed apart in the source
recombinant human TGFβ2 [10] = molecular target: T1, recombinant human TGFβ2; assay: BIACore, method of Karlsson et al.
recombinant human TGFβ1 [11] = molecular target: T3, recombinant human TGFβ1; assay: BIACore, antigen coated on the sensor chip
TGFβ3 [12] = molecular target: T2, TGFβ3; assay: BIACore, antigen coated on the sensor chip
recombinant human TGFβ2 [13] = molecular target: T1, recombinant human TGFβ2; assay: radioreceptor assay, inhibition of 125I-TGFβ2 binding to A549 cells; concentration of antibody combining sites
Procedure: (§2) Cells are seeded at 1-2×10^5 cells/ml/well into the wells of 24-well cluster plates and grown for 24 h in serum-free DMEM. Cell monlayers are washed twice with serum-free DMEM and 0.5 ml binding medium (DMEM/Hams F12 (Sigma D-6421) containing 0.1% (v/v) BSA added to each well.
as §1

human lymphotoxin (TNFβ) = molecular target: T4, human lymphotoxin (TNFβ) (human, UniProt P01374 35-205, limits assumed); assay: ELISA, antigen coated at 10 µg/ml, anti-human Fc alkaline phosphatase conjugate, OD405 nm [b]
T4 sequence (looked up): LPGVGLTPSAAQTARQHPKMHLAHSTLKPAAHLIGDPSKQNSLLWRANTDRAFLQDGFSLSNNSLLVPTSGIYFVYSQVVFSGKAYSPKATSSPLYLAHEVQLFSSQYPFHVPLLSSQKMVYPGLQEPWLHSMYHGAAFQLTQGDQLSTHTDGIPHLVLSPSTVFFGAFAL
Procedure: (§3) For both FIG. 13(a) and FIG. 13(b), antigens 1 to 15 were used for coating the plate at a concentration of 10 μg/ml in PBS. The TGFbetas were coated at 0.2 μg/ml in PBS. Coating was performed at 4° C. overnight. […] of each antigen was used per well and duplicates of each antigen for each IgG to be tested. IgG samples were incubated with the coated antigens at 37° C. for 2 hours after blocking with 2%. marvel-PBS. The labelled second antibody was a mouse anti-human Fc1 alkaline phosphatase conjugated and the substrate used to detect bound second antibody was PNPP at 1 mg/ml with the absorbance read at 405 nm.

human insulin = human insulin (human, UniProt P01308 25-54; P01308 90-110, limits assumed); assay: as above
Chain of human insulin (P01308 25-54 limits assumed, chain 1 of 2): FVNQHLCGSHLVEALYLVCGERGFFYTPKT
Chain of human insulin (P01308 90-110 limits assumed, chain 2 of 2): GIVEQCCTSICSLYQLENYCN
Procedure: as §3

human serum albumin = human serum albumin (human, UniProt P02768 25-609); assay: as above
Chain of human serum albumin (P02768 25-609 limits assumed): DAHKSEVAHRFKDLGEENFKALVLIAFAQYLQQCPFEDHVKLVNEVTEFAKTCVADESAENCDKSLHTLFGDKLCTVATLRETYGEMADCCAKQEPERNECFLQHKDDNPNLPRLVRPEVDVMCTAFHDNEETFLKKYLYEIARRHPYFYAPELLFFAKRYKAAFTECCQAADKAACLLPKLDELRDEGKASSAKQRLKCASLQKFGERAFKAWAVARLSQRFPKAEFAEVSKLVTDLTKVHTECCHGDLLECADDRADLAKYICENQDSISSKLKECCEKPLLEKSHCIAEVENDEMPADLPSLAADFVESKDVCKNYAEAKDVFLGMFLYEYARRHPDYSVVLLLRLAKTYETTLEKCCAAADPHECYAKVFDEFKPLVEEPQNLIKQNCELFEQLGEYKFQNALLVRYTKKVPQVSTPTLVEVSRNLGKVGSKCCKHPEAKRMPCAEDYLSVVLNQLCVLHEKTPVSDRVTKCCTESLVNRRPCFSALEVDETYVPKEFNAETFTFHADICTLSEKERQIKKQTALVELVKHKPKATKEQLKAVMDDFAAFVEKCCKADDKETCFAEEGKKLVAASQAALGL
Procedure: as §3

[14] = molecular target: oxazolone-bovine serum albumin (bovine, UniProt P02769 25-607, oxazolone hapten coupled, sites not stated); assay: as above
Chain of oxazolone-bovine serum albumin (P02769 25-607 limits assumed): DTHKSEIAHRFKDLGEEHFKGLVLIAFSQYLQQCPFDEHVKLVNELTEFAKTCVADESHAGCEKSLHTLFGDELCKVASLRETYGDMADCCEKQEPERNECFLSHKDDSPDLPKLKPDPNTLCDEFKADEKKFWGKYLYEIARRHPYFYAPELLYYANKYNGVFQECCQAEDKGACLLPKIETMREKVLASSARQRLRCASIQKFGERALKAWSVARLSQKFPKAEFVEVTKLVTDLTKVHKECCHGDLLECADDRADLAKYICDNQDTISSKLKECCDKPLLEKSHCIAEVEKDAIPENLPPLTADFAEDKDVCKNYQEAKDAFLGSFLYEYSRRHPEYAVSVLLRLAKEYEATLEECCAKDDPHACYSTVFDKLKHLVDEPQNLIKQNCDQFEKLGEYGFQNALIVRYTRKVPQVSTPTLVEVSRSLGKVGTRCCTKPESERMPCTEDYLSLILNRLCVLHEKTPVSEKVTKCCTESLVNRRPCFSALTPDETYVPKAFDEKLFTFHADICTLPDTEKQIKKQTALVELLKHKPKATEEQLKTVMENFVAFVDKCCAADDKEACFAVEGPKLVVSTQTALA
Procedure: as §3

[15] = molecular target: T5, chicken egg white trypsin inhibitor (chicken, UniProt P01005 25-210); assay: as above
T5 sequence (looked up): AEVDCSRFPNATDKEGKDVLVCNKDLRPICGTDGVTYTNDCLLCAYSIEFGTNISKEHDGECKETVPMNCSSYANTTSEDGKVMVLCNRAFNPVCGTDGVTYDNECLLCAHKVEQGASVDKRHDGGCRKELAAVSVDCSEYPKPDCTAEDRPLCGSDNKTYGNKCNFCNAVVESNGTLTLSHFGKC
Procedure: as §3

ovalbumin = molecular target: T6, ovalbumin (UniProt P01012 2-386); assay: as above
T6 sequence (looked up): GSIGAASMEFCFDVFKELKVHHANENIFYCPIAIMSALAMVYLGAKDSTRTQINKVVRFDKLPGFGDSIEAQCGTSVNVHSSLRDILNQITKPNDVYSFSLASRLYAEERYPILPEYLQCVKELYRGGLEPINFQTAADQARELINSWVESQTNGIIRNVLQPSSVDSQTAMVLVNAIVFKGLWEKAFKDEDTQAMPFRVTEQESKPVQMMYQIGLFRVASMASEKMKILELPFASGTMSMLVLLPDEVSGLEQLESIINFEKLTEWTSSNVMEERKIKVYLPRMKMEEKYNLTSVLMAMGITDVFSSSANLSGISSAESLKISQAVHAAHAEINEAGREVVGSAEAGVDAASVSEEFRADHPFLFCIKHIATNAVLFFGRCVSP
Procedure: as §3

hen egg lysozyme = hen egg lysozyme (hen, UniProt P00698 19-147); assay: as above
Chain of hen egg lysozyme (P00698 19-147): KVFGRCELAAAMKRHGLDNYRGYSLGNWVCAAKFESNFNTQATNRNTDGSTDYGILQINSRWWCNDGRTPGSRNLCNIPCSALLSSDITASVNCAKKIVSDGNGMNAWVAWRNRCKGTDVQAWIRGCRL
Procedure: as §3

bovine serum albumin = molecular target: T7, bovine serum albumin (bovine, UniProt P02769 25-607); assay: as above
T7 construct: also called BSA
T7 sequence (P02769 25-607 limits assumed): as the sequence (P02769 25-607 limits assumed) above
Procedure: as §3

recombinant human TGFβ2 [16] = molecular target: T1, recombinant human TGFβ2; assay: BIACore, antigen on the chip
recombinant human TGFβ1 [17] = molecular target: T3, recombinant human TGFβ1; assay: BIACore, method of Karlsson et al.
[18] = molecular target: lysozyme (coated onto a BIACore sensor chip) (Gallus gallus (Chicken), UniProt P00698 19-147); assay: BIACore, lysozyme coated on the sensor chip
Chain of lysozyme (coated onto a BIACore sensor chip) (P00698 19-147 limits assumed): as the sequence (P00698 19-147) above

recombinant human TGFβ1 [19] = molecular target: T3, recombinant human TGFβ1; assay: radioreceptor assay, inhibition of 125I-TGFβ1 binding to A549 cells; concentration of antibody combining sites
Procedure: as §2, §1

## Mouse anti-TGFβ1,2,3 monoclonal antibody from Genzyme
Recombinant human TGFβ2 [1]
  TF1 cell proliferation assay IC50 (nM IgG): 10 nM
TGFβ3 [2]
  TF1 cell proliferation assay IC50 (nM IgG): 0.1 nM
Recombinant human TGFβ1 [3]
  TF1 cell proliferation assay IC50 (nM IgG): 1.5 nM
Recombinant human TGFβ1 [4]
  IC50: 0.55 nM
TGFβ3 [5]
  IC50: 0.03 nM
Recombinant human TGFβ2 [6]
  IC50: 0.5 nM

B1: 10A6 scFv (scFv)
scFv: QVQLVESGGGVVQPGRSLRLSCAASGFTFSSYGMHWVRQAPGKGLEWVAVISYDGSNKYYADSVKGRFTISRDNSKNTLYLQMNSLRAEDTAVYYCAKTGEYSGYDSSGVDVWGKGTTVTVSSGGGGSGGGGSGGGGSHVILTQDPAVSVALGQTVRITCQGDSLKSYYASWYQQKPGQAPVLVIYGENSRPSGIPDRFSGSSSGNTASLTITGAQAEDEADYYCNSRDSSGTHLEVFGGGTKLTVLG
notes: Light chain shuffle of 1-B2
Recombinant human TGFβ1 [7]
  ELISA signal, fold over the signal on TGFβ2 and TGFβ3: ≥ 5 fold

B2: 6H1 IgG4 (antibody, V domains shown)
VH: EVQLVESGGGVVQPGRSLRLSCAASGFTFSSYGMHWVRQAPGKGLEWVAVIWYDGSNKYYADSVKGRFTISRDNSKNTLYLQMDSLRAEDTAVYYCGRTLESSLWGQGTLVTVSS
VL: DVVMTQSPSSLSASVGDRVTITCRASQGISNYLAWYQQKPGKAPKLLIYKASTLESGVPSRFSGSGSGTEFTLTISSLQPEDFATYYCQQSYSTPRTFGQGTKVDIKR
notes: Whole antibody: human gamma 4 and human kappa constant regions (pG4D100, pKN100), CHO cells
Recombinant human TGFβ2 [8]
  IC50 in TF1 cell proliferation assay, 100 pM TGFβ isoform: 12 nM
  IC50 in TF1 neutralisation assay, 6H1 IgG4 from a CHO cell line: 15 nM
TGFβ3 [2]
  IC50 in TF1 cell proliferation assay, 100 pM TGFβ isoform: ~20 nM
Recombinant human TGFβ2 [9]
  I.C.50 in TF1 assay (neutralisation of TGFβ2 inhibition of TF1 cell proliferation): 100 nM
Recombinant human TGFβ2 [10]
  Kd: ~2 nM
Recombinant human TGFβ1 [11]
  binding result: no binding
TGFβ3 [12]
  binding result: no binding
Recombinant human TGFβ2 [13]
  IC50: ~10 nM

B3: 6A5 IgG4 (antibody, V domains shown)
VH: B2 VH
VL: SSELTQDPAVSVALGQTVRITCQGDSLRSYYASWYQQKPGQAPVLVIYGKNNRPSGIPDRFAGSNSGNTASLTITGAQAEDEADYYCSSRDSSGNHVVFGGGTKLTVLG
notes: Whole antibody: human gamma 4 and human lambda constant regions (pG4D100, pLN10), CHO cells
Recombinant human TGFβ2 [9]
  I.C.50 in TF1 assay (neutralisation of TGFβ2 inhibition of TF1 cell proliferation): 150 nM
Human lymphotoxin (TNFβ)
  binding result: no binding
Human insulin
  binding result: no binding
Human serum albumin
  binding result: no binding
[14]
  binding result: no binding
[15]
  binding result: no binding
ovalbumin
  binding result: no binding
Hen egg lysozyme
  binding result: no binding
Bovine serum albumin
  binding result: no binding
Recombinant human TGFβ2 [13]
  IC50: ~6 nM

B4: 27C1/10A6 IgG4 (antibody, V domains shown)
VH: QVQLVESGGGVVQPGRSLRLSCAASGLTFSSYDMHWVRQPPAKGLEWVAVISYDGSSKYYADSVKGRFTISRDNSKNTLYLQMNSLRAEDTAVYYCARTGEYSGYDTSGVELWGQGTTVTVSS
VL: HVILTQDPAVSVALGQTVRITCQGDSLKSYYASWYQQKPGQAPVLVIYGENSRPSGIPDRFSGSSSGNTASLTITGAQAEDEADYYCNSRDSSGTHLEVFGGGTKLTVLG
notes: Whole antibody: human gamma 4 constant region (pG4D100) and human lambda constant region (pLN10), made in CHO cells
Recombinant human TGFβ2 [16]
  fold higher dissociation constant compared to TGFβ1: ≥ 10 fold
Recombinant human TGFβ1 [17]
  Kd: ~5 nM
[18]
  binding result: no binding
Recombinant human TGFβ1 [19]
  IC50: 9 nM
